Measured values reported in IntAct's records for PubMed 18093920.

B1: Syndecan-1 (Homo sapiens), P18827 (parent)
chain: MRRAALWLWLCALALSLQPALPQIVATNLPPEDQDGSGDDSDNFSGSGAGALQDITLSQQTPSTWKDTQLLTAIPTSPEPTGLEATAASTSTLPAGEGPKEGEAVVLPEVEPGLTAREQEATPRPRETTQLPTTHLASTTTATTAQEPATSHPHRDMQPGHHETSTPAGPSQADLHTPHTEDGGPSATERAAEDGASSQLPAAEGSGEQDFTFETSGENTAVVAVEPDRRNQSPVDQGATGASQGLLDRKEVLGGVIAGGLVGLIFAVCLVGFMLYRMKKKDEGSYSLEEPKQANGGAYQKPTKQEEFYA
B2: Syndecan-3 (Homo sapiens), O75056 (parent)
chain: MKPGPPHRAGAAHGAGAGAGAAAGPGARGLLLPPLLLLLLAGRAAGAQRWRSENFERPVDLEGSGDDDSFPDDELDDLYSGSGSGYFEQESGIETAMRFSPDVALAVSTTPAVLPTTNIQPVGTPFEELPSERPTLEPATSPLVVTEVPEEPSQRATTVSTTMATTAATSTGDPTVATVPATVATATPSTPAAPPFTATTAVIRTTGVRRLLPLPLTTVATARATTPEAPSPPTTAAVLDTEAPTPRLVSTATSRPRALPRPATTQEPDIPERSTLPLGTTAPGPTEVAQTPTPETFLTTIRDEPEVPVSGGPSGDFELPEEETTQPDTANEVVAVGGAAAKASSPPGTLPKGARPGPGLLDNAIDSGSSAAQLPQKSILERKEVLVAVIVGGVVGALFAAFLVTLLIYRMKKKDEGSYTLEEPKQASVTYQKPDKQEEFYA
B3: Syndecan-3 (Homo sapiens), O75056 (parent)
chain: B2 chain
partner: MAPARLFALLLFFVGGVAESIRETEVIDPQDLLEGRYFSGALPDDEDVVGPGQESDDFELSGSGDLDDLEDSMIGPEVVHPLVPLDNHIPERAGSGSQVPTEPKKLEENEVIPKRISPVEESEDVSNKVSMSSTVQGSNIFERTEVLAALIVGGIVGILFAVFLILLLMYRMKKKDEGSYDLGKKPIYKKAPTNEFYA
B4: Syndecan-4 (Homo sapiens), P31431 (parent)
chain: B3 partner
B5: Syndecan-2 (Homo sapiens), P34741 (parent)
chain: MRRAWILLTLGLVACVSAESRAELTSDKDMYLDNSSIEEASGVYPIDDDDYASASGSGADEDVESPELTTSRPLPKILLTSAAPKVETTTLNIQNKIPAQTKSPEETDKEKVHLSDSERKMDPAEEDTNVYTEKHSDSLFKRTEVLAAVIAGGVIGFLFAIFLILLLVYRMRKKDEGSYDLGERKPSSAAYQKAPTKEFYA
partner: B3 partner
B6: Syndecan-2 (Homo sapiens), P34741 (parent)
chain: B5 chain
B7: Syndecan-2 (Homo sapiens), P34741 (parent)
chain: B5 chain
partner: B1 chain

Variants of: B1
Conditions: with sdc2_human SDC2, P34741

effect of a mutation on the interaction	Variant
decreasing interaction	MRRAALWLWLCALALSLQPALPQIVATNLPPEDQDGSGDDSDNFSGSGAGALQDITLSQQTPSTWKDTQLLTAIPTSPEPTGLEATAASTSTLPAGEGPKEGEAVVLPEVEPGLTAREQEATPRPRETTQLPTTHLASTTTATTAQEPATSHPHRDMQPGHHETSTPAGPSQADLHTPHTEDGGPSATERAAEDGASSQLPAAEGSGEQDFTFETSGENTAVVAVEPDRRNQSPVDQGATGASQGLLDRKEVLGGVIALGLVGLIFAVCLVGFMLYRMKKKDEGSYSLEEPKQANGGAYQKPTKQEEFYA [G259L]
decreasing interaction	MRRAALWLWLCALALSLQPALPQIVATNLPPEDQDGSGDDSDNFSGSGAGALQDITLSQQTPSTWKDTQLLTAIPTSPEPTGLEATAASTSTLPAGEGPKEGEAVVLPEVEPGLTAREQEATPRPRETTQLPTTHLASTTTATTAQEPATSHPHRDMQPGHHETSTPAGPSQADLHTPHTEDGGPSATERAAEDGASSQLPAAEGSGEQDFTFETSGENTAVVAVEPDRRNQSPVDQGATGASQGLLDRKEVLGGVIAGGLVLLIFAVCLVGFMLYRMKKKDEGSYSLEEPKQANGGAYQKPTKQEEFYA [G263L]

Variants of: B1
Conditions: with sdc3_human SDC3, O75056

effect of a mutation on the interaction	Variant
decreasing interaction	MRRAALWLWLCALALSLQPALPQIVATNLPPEDQDGSGDDSDNFSGSGAGALQDITLSQQTPSTWKDTQLLTAIPTSPEPTGLEATAASTSTLPAGEGPKEGEAVVLPEVEPGLTAREQEATPRPRETTQLPTTHLASTTTATTAQEPATSHPHRDMQPGHHETSTPAGPSQADLHTPHTEDGGPSATERAAEDGASSQLPAAEGSGEQDFTFETSGENTAVVAVEPDRRNQSPVDQGATGASQGLLDRKEVLGGVIALGLVGLIFAVCLVGFMLYRMKKKDEGSYSLEEPKQANGGAYQKPTKQEEFYA [G259L]
decreasing interaction	MRRAALWLWLCALALSLQPALPQIVATNLPPEDQDGSGDDSDNFSGSGAGALQDITLSQQTPSTWKDTQLLTAIPTSPEPTGLEATAASTSTLPAGEGPKEGEAVVLPEVEPGLTAREQEATPRPRETTQLPTTHLASTTTATTAQEPATSHPHRDMQPGHHETSTPAGPSQADLHTPHTEDGGPSATERAAEDGASSQLPAAEGSGEQDFTFETSGENTAVVAVEPDRRNQSPVDQGATGASQGLLDRKEVLGGVIAGGLVLLIFAVCLVGFMLYRMKKKDEGSYSLEEPKQANGGAYQKPTKQEEFYA [G263L]

Variants of: B2
Conditions: with sdc2_human SDC2, P34741

effect of a mutation on the interaction	Variant
decreasing interaction	MKPGPPHRAGAAHGAGAGAGAAAGPGARGLLLPPLLLLLLAGRAAGAQRWRSENFERPVDLEGSGDDDSFPDDELDDLYSGSGSGYFEQESGIETAMRFSPDVALAVSTTPAVLPTTNIQPVGTPFEELPSERPTLEPATSPLVVTEVPEEPSQRATTVSTTMATTAATSTGDPTVATVPATVATATPSTPAAPPFTATTAVIRTTGVRRLLPLPLTTVATARATTPEAPSPPTTAAVLDTEAPTPRLVSTATSRPRALPRPATTQEPDIPERSTLPLGTTAPGPTEVAQTPTPETFLTTIRDEPEVPVSGGPSGDFELPEEETTQPDTANEVVAVGGAAAKASSPPGTLPKGARPGPGLLDNAIDSGSSAAQLPQKSILERKEVLVAVIVLGVVGALFAAFLVTLLIYRMKKKDEGSYTLEEPKQASVTYQKPDKQEEFYA [G392L]
decreasing interaction	MKPGPPHRAGAAHGAGAGAGAAAGPGARGLLLPPLLLLLLAGRAAGAQRWRSENFERPVDLEGSGDDDSFPDDELDDLYSGSGSGYFEQESGIETAMRFSPDVALAVSTTPAVLPTTNIQPVGTPFEELPSERPTLEPATSPLVVTEVPEEPSQRATTVSTTMATTAATSTGDPTVATVPATVATATPSTPAAPPFTATTAVIRTTGVRRLLPLPLTTVATARATTPEAPSPPTTAAVLDTEAPTPRLVSTATSRPRALPRPATTQEPDIPERSTLPLGTTAPGPTEVAQTPTPETFLTTIRDEPEVPVSGGPSGDFELPEEETTQPDTANEVVAVGGAAAKASSPPGTLPKGARPGPGLLDNAIDSGSSAAQLPQKSILERKEVLVAVIVGGVVLALFAAFLVTLLIYRMKKKDEGSYTLEEPKQASVTYQKPDKQEEFYA [G396L]

Variants of: B3
Conditions: with sdc4_human SDC4, P31431

effect of a mutation on the interaction	Variant
decreasing interaction	MKPGPPHRAGAAHGAGAGAGAAAGPGARGLLLPPLLLLLLAGRAAGAQRWRSENFERPVDLEGSGDDDSFPDDELDDLYSGSGSGYFEQESGIETAMRFSPDVALAVSTTPAVLPTTNIQPVGTPFEELPSERPTLEPATSPLVVTEVPEEPSQRATTVSTTMATTAATSTGDPTVATVPATVATATPSTPAAPPFTATTAVIRTTGVRRLLPLPLTTVATARATTPEAPSPPTTAAVLDTEAPTPRLVSTATSRPRALPRPATTQEPDIPERSTLPLGTTAPGPTEVAQTPTPETFLTTIRDEPEVPVSGGPSGDFELPEEETTQPDTANEVVAVGGAAAKASSPPGTLPKGARPGPGLLDNAIDSGSSAAQLPQKSILERKEVLVAVIVGGVVLALFAAFLVTLLIYRMKKKDEGSYTLEEPKQASVTYQKPDKQEEFYA [G396L]

Variants of: B4
Conditions: with sdc2_human SDC2, P34741

effect of a mutation on the interaction	Variant
decreasing interaction	MAPARLFALLLFFVGGVAESIRETEVIDPQDLLEGRYFSGALPDDEDVVGPGQESDDFELSGSGDLDDLEDSMIGPEVVHPLVPLDNHIPERAGSGSQVPTEPKKLEENEVIPKRISPVEESEDVSNKVSMSSTVQGSNIFERTEVLAALIVGGIVLILFAVFLILLLMYRMKKKDEGSYDLGKKPIYKKAPTNEFYA [G157L]
decreasing interaction	MAPARLFALLLFFVGGVAESIRETEVIDPQDLLEGRYFSGALPDDEDVVGPGQESDDFELSGSGDLDDLEDSMIGPEVVHPLVPLDNHIPERAGSGSQVPTEPKKLEENEVIPKRISPVEESEDVSNKVSMSSTVQGSNIFERTEVLAALIVLGIVGILFAVFLILLLMYRMKKKDEGSYDLGKKPIYKKAPTNEFYA [G153L]

Variants of: B4
Conditions: with sdc3_human SDC3, O75056

effect of a mutation on the interaction	Variant
decreasing interaction	MAPARLFALLLFFVGGVAESIRETEVIDPQDLLEGRYFSGALPDDEDVVGPGQESDDFELSGSGDLDDLEDSMIGPEVVHPLVPLDNHIPERAGSGSQVPTEPKKLEENEVIPKRISPVEESEDVSNKVSMSSTVQGSNIFERTEVLAALIVGGIVLILFAVFLILLLMYRMKKKDEGSYDLGKKPIYKKAPTNEFYA [G157L]
decreasing interaction	MAPARLFALLLFFVGGVAESIRETEVIDPQDLLEGRYFSGALPDDEDVVGPGQESDDFELSGSGDLDDLEDSMIGPEVVHPLVPLDNHIPERAGSGSQVPTEPKKLEENEVIPKRISPVEESEDVSNKVSMSSTVQGSNIFERTEVLAALIVLGIVGILFAVFLILLLMYRMKKKDEGSYDLGKKPIYKKAPTNEFYA [G153L]

Variants of: B5
Conditions: with sdc4_human SDC4, P31431

effect of a mutation on the interaction	Variant
decreasing interaction	MRRAWILLTLGLVACVSAESRAELTSDKDMYLDNSSIEEASGVYPIDDDDYASASGSGADEDVESPELTTSRPLPKILLTSAAPKVETTTLNIQNKIPAQTKSPEETDKEKVHLSDSERKMDPAEEDTNVYTEKHSDSLFKRTEVLAAVIALGVIGFLFAIFLILLLVYRMRKKDEGSYDLGERKPSSAAYQKAPTKEFYA [G152L]
decreasing interaction	MRRAWILLTLGLVACVSAESRAELTSDKDMYLDNSSIEEASGVYPIDDDDYASASGSGADEDVESPELTTSRPLPKILLTSAAPKVETTTLNIQNKIPAQTKSPEETDKEKVHLSDSERKMDPAEEDTNVYTEKHSDSLFKRTEVLAAVIAGGVILFLFAIFLILLLVYRMRKKDEGSYDLGERKPSSAAYQKAPTKEFYA [G156L]

Variants of: B6
Conditions: with sdc3_human SDC3, O75056

effect of a mutation on the interaction	Variant
decreasing interaction	MRRAWILLTLGLVACVSAESRAELTSDKDMYLDNSSIEEASGVYPIDDDDYASASGSGADEDVESPELTTSRPLPKILLTSAAPKVETTTLNIQNKIPAQTKSPEETDKEKVHLSDSERKMDPAEEDTNVYTEKHSDSLFKRTEVLAAVIAGGVILFLFAIFLILLLVYRMRKKDEGSYDLGERKPSSAAYQKAPTKEFYA [G156L]
decreasing interaction	MRRAWILLTLGLVACVSAESRAELTSDKDMYLDNSSIEEASGVYPIDDDDYASASGSGADEDVESPELTTSRPLPKILLTSAAPKVETTTLNIQNKIPAQTKSPEETDKEKVHLSDSERKMDPAEEDTNVYTEKHSDSLFKRTEVLAAVIALGVIGFLFAIFLILLLVYRMRKKDEGSYDLGERKPSSAAYQKAPTKEFYA [G152L]

Variants of: B7
Conditions: with sdc1_human SDC1, P18827

effect of a mutation on the interaction	Variant
decreasing interaction	MRRAWILLTLGLVACVSAESRAELTSDKDMYLDNSSIEEASGVYPIDDDDYASASGSGADEDVESPELTTSRPLPKILLTSAAPKVETTTLNIQNKIPAQTKSPEETDKEKVHLSDSERKMDPAEEDTNVYTEKHSDSLFKRTEVLAAVIAGGVILFLFAIFLILLLVYRMRKKDEGSYDLGERKPSSAAYQKAPTKEFYA [G156L]
decreasing interaction	MRRAWILLTLGLVACVSAESRAELTSDKDMYLDNSSIEEASGVYPIDDDDYASASGSGADEDVESPELTTSRPLPKILLTSAAPKVETTTLNIQNKIPAQTKSPEETDKEKVHLSDSERKMDPAEEDTNVYTEKHSDSLFKRTEVLAAVIALGVIGFLFAIFLILLLVYRMRKKDEGSYDLGERKPSSAAYQKAPTKEFYA [G152L]
